From patent publication US20210107998A1 (Boehringer Ingelheim, published 2021) come the findings set out here.

Where a chain is given by its changes, count along the chain named.

B1: Control Antibody 1 (anti-BAFF monoclonal antibody) (BAFF (1)) (antibody, V domains shown)
VH: QVQLQQSGAEVKKPGSSVRVSCKASGGTFNNNAINWVRQAPGQGLEWMGGIIPMFGTAKYSQNFQGRVAITADESTGTASMELSSLRSEDTAVYYCARSRDLLLFPHHALSPWGRGTMVTVSS
VL: SSELTQDPAVSVALGQTVRVTCQGDSLRSYYASWYQQKPGQAPVLVIYGKNNRPSGIPDRFSGSSSGNTASLTITGAQAEDEADYYCSSRDSSGNHWVFGGGTELTVL
B2: Compound X (bispecific antibody, human IgG4 S228P, kappa)
chain 1: SSELTQDPAVSVALGQTVRVTCQGDSLRSYYASWYQQKPGQAPVLVIYGKNNRPSGIPDRFSGSSSGNTASLTITGAQAEDEADYYCSSRDSSGNHWVFGGGTELTVLGGGSGGGGQVQLVQSGAEVKKPGSSVKVSCKASGYTFTDQTIHWMRQAPGQGLEWIGYIYPRDDSPKYNENFKGKVTITADKSTSTAYMELSSLRSEDTAVYYCAIPDRSGYAWFIYWGQGTLVTVSSLGGGSGASTKGPSVFPLAPCSRSTSESTAALGCLVKDYFPEPVTVSWNSGALTSGVHTFPAVLQSSGLYSLSSVVTVPSSSLGTKTYTCNVDHKPSNTKVDKRVESKYGPPCPPCPAPEFLGGPSVFLFPPKPKDTLYITREPEVTCVVVDVSQEDPEVQFNWYVDGVEVHNAKTKPREEQFNSTYRVVSVLTVLHQDWLNGKEYKCKVSNKGLPSSIEKTISKAKGQPREPQVYTLPPSQEEMTKNQVSLTCLVKGFYPSDIAVEWESNGQPENNYKTTPPVLDSDGSFFLYSRLTVDKSRWQEGNVFSCSVMHEALHNHYTQKSLSLSLG
chain 2: DIQMTQSPSSLSASVGDRVTITCKASRDVAIAVAWYQQKPGKVPKLLIYWASTRHTGVPSRFSGSGSRTDFTLTISSLQPEDVADYFCHQYSSYPFTFGSGTKLEIKGGGSGGGGQVQLQQSGAEVKKPGSSVRVSCKASGGTFNNNAINWVRQAPGQGLEWMGGIIPMFGTAKYSQNFQGRVAITADESTGTASMELSSLRSEDTAVYYCARSRDLLLFPHHALSPWGRGTMVTVSSLGGGSGRTVAAPSVFIFPPSDEQLKSGTASVVCLLNNFYPREAKVQWKVDNALQSGNSQESVTEQDSKDSTYSLSSTLTLSKADYEKHKVYACEVTHQGLSSPVTKSFNRGEC
B3: Compound O (bispecific antibody, human IgG1, kappa, L234A L235A)
chain 1: DIQMTQSPSSLSASVGDRVSITCKASQNAGIDVAWFQQKPGKAPKLLIYSKSNRYTGVPSRFSGSGSGTDFTLTISSLQPEDFADYYCLQYRSYPRTFGGGTKLEIKGGGSGGGGQVQLVQSGAEVKKPGSSVKVSCKASGYTFTDQTIHWMRQAPGQGLEWIGYIYPRDDSPKYNENFKGKVTITADKSTSTAYMELSSLRSEDTAVYYCAIPDRSGYAWFIYWGQGTLVTVSSLGGGSGASTKGPSVFPLAPSSKSTSGGTAALGCLVKDYFPEPVTVSWNSGALTSGVHTFPAVLQSSGLYSLSSVVTVPSSSLGTQTYICNVNHKPSNTKVDKRVEPKSCDKTHTCPPCPAPEAAGGPSVFLFPPKPKDTLYITREPEVTCVVVDVSHEDPEVKFNWYVDGVEVHNAKTKPREEQYNSTYRVVSVLTVLHQDWLNGKEYKCKVSNKALPAPIEKTISKAKGQPREPQVYTLPPSREEMTKNQVSLTCLVKGFYPSDIAVEWESNGQPENNYKTTPPVLDSDGSFFLYSKLTVDKSRWQQGNVFSCSVMHEALHNHYTQKSLSLSPG
chain 2: DIQMTQSPSSLSASVGDRVTITCKASRDVAIAVAWYQQKPGKVPKLLIYWASTRHTGVPSRFSGSGSRTDFTLTISSLQPEDVADYFCHQYSSYPFTFGSGTKLEIKGGGSGGGGQVQLVQSGAEVKKPGASVKVSCKASGYSFSTFFIHWVRQRPGQGLEWIGRIDPNSGATKYNEKFESKVTLTRDTSISTAYMELSRLRSDDTAVYYCARGEDLLIRTDALDYWGQGTSVTVSSLGGGSGRTVAAPSVFIFPPSDEQLKSGTASVVCLLNNFYPREAKVQWKVDNALQSGNSQESVTEQDSKDSTYSLSSTLTLSKADYEKHKVYACEVTHQGLSSPVTKSFNRGEC
B4: Compound P (bispecific antibody, human IgG4 S228P, kappa)
chain 1: DIQMTQSPSSLSASVGDRVSITCKASQNAGIDVAWFQQKPGKAPKLLIYSKSNRYTGVPSRFSGSGSGTDFTLTISSLQPEDFADYYCLQYRSYPRTFGGGTKLEIKGGGSGGGGQVQLVQSGAEVKKPGSSVKVSCKASGYTFTDQTIHWMRQAPGQGLEWIGYIYPRDDSPKYNENFKGKVTITADKSTSTAYMELSSLRSEDTAVYYCAIPDRSGYAWFIYWGQGTLVTVSSLGGGSGASTKGPSVFPLAPCSRSTSESTAALGCLVKDYFPEPVTVSWNSGALTSGVHTFPAVLQSSGLYSLSSVVTVPSSSLGTKTYTCNVDHKPSNTKVDKRVESKYGPPCPPCPAPEFLGGPSVFLFPPKPKDTLYITREPEVTCVVVDVSQEDPEVQFNWYVDGVEVHNAKTKPREEQFNSTYRVVSVLTVLHQDWLNGKEYKCKVSNKGLPSSIEKTISKAKGQPREPQVYTLPPSQEEMTKNQVSLTCLVKGFYPSDIAVEWESNGQPENNYKTTPPVLDSDGSFFLYSRLTVDKSRWQEGNVFSCSVMHEALHNHYTQKSLSLSLG
chain 2: B3 chain 2
B5: Compound Q (bispecific antibody, human IgG1, kappa, L234A L235A)
chain 1: B3 chain 1 with D85T, G100Q
chain 2: B3 chain 2 with R155A, K182R, L185M
B6: Compound R (bispecific antibody, human IgG4 S228P, kappa)
chain 1: B4 chain 1 with D85T, G100Q
chain 2: B3 chain 2 with R155A, K182R, L185M

The target of one experiment is membrane-bound human BAFF on fixed CHO-K1 cells (human, UniProt Q9Y275 1-285). Kind of experiment: cell-based or functional assay.
For the molecule B1, the “IC50, NFkB luciferase reporter, human BAFFR-CHO cells stimulated with fixed human BAFF CHO-K1 cells” value is 0.553 nM and the “IC90, NFkB luciferase reporter, human BAFFR-CHO cells stimulated with fixed human BAFF CHO-K1 cells” value is 10.1 nM.

A further experiment addresses Recombinant human BAFF 60mer (Boehringer Ingelheim Pharmaceuticals, Inc.) (human, UniProt Q9Y275 134-285, limits assumed). Kind of experiment: cell-based or functional assay.
For B2, the “IC50, NFkB luciferase reporter, human BAFFR-CHO cells” value is 1.55 nM and the “IC90, NFkB luciferase reporter, human BAFFR-CHO cells” value was found to be 6.84 nM.

With B3, the “IC50, NFkB luciferase reporter, human BAFFR-CHO cells” value came out at 0.005 nM and the “IC90, NFkB luciferase reporter, human BAFFR-CHO cells” value is 0.006 nM.

With B4, the “IC50, NFkB luciferase reporter, human BAFFR-CHO cells” value was found to be 0.002 nM and the “IC90, NFkB luciferase reporter, human BAFFR-CHO cells” value worked out at 0.009 nM.

With B5, the “IC50, NFkB luciferase reporter, human BAFFR-CHO cells” value is 0.005 nM and the “IC90, NFkB luciferase reporter, human BAFFR-CHO cells” value came out at 0.013 nM.

B6: the “IC50, NFkB luciferase reporter, human BAFFR-CHO cells” value turned out to be 0.005 nM and the “IC90, NFkB luciferase reporter, human BAFFR-CHO cells” value was found to be 0.016 nM.

B1: the “IC50, NFkB luciferase reporter, human BAFFR-CHO cells” value was 24.1 nM and the “IC90, NFkB luciferase reporter, human BAFFR-CHO cells” value was determined as 180 nM.

The next experiment has as its target Recombinant cynomolgus BAFF trimer (Boehringer Ingelheim Pharmaceuticals, Inc.) (cynomolgus, UniProt A0A2K5V2X4 134-285). Nature of the experiment: cell-based or functional assay.
As to B1, the “IC50 Geomean, NFkB luciferase reporter, human BAFFR-CHO cells” value stood at 0.288 nM and the “IC90 Geomean, NFkB luciferase reporter, human BAFFR-CHO cells” value was determined as 0.635 nM.

For another experiment, the target named is T1, Recombinant human BAFF trimer (Boehringer Ingelheim Pharmaceuticals, Inc.) (human, UniProt Q9Y275 134-285, limits assumed). Kind of experiment: cell-based or functional assay.
As for B2, the “IC50, NFkB luciferase reporter, human BAFFR-CHO cells” value was determined as 0.106 nM and the “IC90, NFkB luciferase reporter, human BAFFR-CHO cells” value amounted to 0.361 nM.

In the case of B3, the “IC50, NFkB luciferase reporter, human BAFFR-CHO cells” value was 0.027 nM and the “IC90, NFkB luciferase reporter, human BAFFR-CHO cells” value amounted to 0.119 nM.

Regarding B4, the “IC50, NFkB luciferase reporter, human BAFFR-CHO cells” value worked out at 0.019 nM and the “IC90, NFkB luciferase reporter, human BAFFR-CHO cells” value stood at 0.088 nM.

Take B5: the “IC50, NFkB luciferase reporter, human BAFFR-CHO cells” value came to 0.026 nM and the “IC90, NFkB luciferase reporter, human BAFFR-CHO cells” value came to 0.108 nM.

With B6, the “IC50, NFkB luciferase reporter, human BAFFR-CHO cells” value is 0.03 nM and the “IC90, NFkB luciferase reporter, human BAFFR-CHO cells” value was found to be 0.139 nM.

As for B1, the “IC50, NFkB luciferase reporter, human BAFFR-CHO cells” value stood at 0.232 nM and the “IC90, NFkB luciferase reporter, human BAFFR-CHO cells” value was determined as 0.743 nM.

Another experiment has as its target T1, Recombinant human BAFF trimer …. Kind of experiment: cell-based or functional assay. The source holds these as a separate data set.
As for B1, the “IC50 Geomean, NFkB luciferase reporter, human TACI-CHO cells” value was 0.273 nM and the “IC90 Geomean, NFkB luciferase reporter, human TACI-CHO cells” value stood at 0.576 nM.
